Measurements: patent US20100280227A1 (Genentech, published 2010)
Residue numbers refer to the chain shown, from its start. Values belong to the binder of their own block, whether it stands above or below them.

How the values were obtained:
[1] = biological target: T1, human BR3 expressed on cells (human, UniProt Q96RJ3 1-184); assay: BJAB cells, competition with biotin-BAFF
T1 construct: whole, on cells; also called BR3 on BJAB cells; cell surface BR3

[2] = biological target: T2, human BR3 extracellular domain (human, UniProt Q96RJ3 1-61); assay: SPR, IgG on chip, BR3 ECD in solution
T2 construct: biotinylated where used as tracer; also called hBR3-ECD; BR3-ECD

[3] = biological target: T2, human BR3 extracellular domain; assay: SPR, BR3 ECD on chip;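 also: Anti-BR3 antibodies passed over the chip at high flow in PBS with 0.05% polysorbate 20, on and off rates fitted together globally to a 1:1 binding model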
[4] = biological target: T1, human BR3 expressed on cells; assay: BJAB cells, direct binding
[5] = biological target: T3, variant human BR3-Fc fusion; assay: SPR, vBR3-Fc on chip;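 also: Anti-BR3 antibodies passed over chip-bound BR3-Fc in PBS with 0.05% polysorbate 20, on and off rates fitted together globally to a 1:1 binding model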
T3 construct: produced in CHO cells; also called vBR3-Fc; vhBR3-Fc

[6] = biological target: T4, mouse BR3 extracellular domain (mouse, UniProt Q9D8D0 1-64); assay: phage competition ELISA
T4 construct: also called mBR3-ECD; mBR-ECD
T4 sequence: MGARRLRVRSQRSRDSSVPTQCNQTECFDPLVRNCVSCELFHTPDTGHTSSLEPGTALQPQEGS

[7] = biological target: T2, human BR3 extracellular domain; assay: phage competition ELISA
[8] = biological target: T4, mouse BR3 extracellular domain; assay: SPR BIAcore-3000, Fab
Source text: (§1) Surface plasmon resonance assays on a BIAcore™-3000 were used to determine the affinity of the Fabs.

[9] = biological target: T2, human BR3 extracellular domain; assay: SPR BIAcore-3000, Fab
Source text: as §1

IC50 [1]: 170 pM
Kd [2]: 20 pM
koff [2]: 7.6e-05 s⁻¹
kon [2]: 3.57e+06 M⁻¹ s⁻¹
Kd [3]: 17 pM
koff [3]: 4e-05 s⁻¹
kon [3]: 2.41e+06 M⁻¹ s⁻¹
EC50 [4]: 110 pM
B1: Hu2.1-30 IgG (antibody, V domains shown)
VH: EVQLVESGGGLVQPGGSLRLSCAASGDSITRGYWNWVRQAPGKGLEWVGYINYSGTTYYNPSLKSRFTISRDTSKNTFYLQMNSLRAEDTAVYYCANLNYYGAMDYWGQGTLVTVSS
VL: DIQMTQSPSSLSASVGDRVTITCRASESVDDYGISFMHWYQQKPGKAPKLLIYRASDLESGVPSRFSGSGSGTDFTLTISSLQPEDFATYYCQQTSKDPWTFGQGTKVEIKR
notes: humanized IgG; also called h2.1-30

IC50 [1]: 190 pM
Kd [2]: 193 pM
koff [2]: 0.000432 s⁻¹
kon [2]: 2.24e+06 M⁻¹ s⁻¹
Kd [3]: 20 pM
koff [3]: 4.5e-05 s⁻¹
kon [3]: 2.2e+06 M⁻¹ s⁻¹
Kd [5]: 41 pM
koff [5]: 3.96e-05 s⁻¹
kon [5]: 978000 M⁻¹ s⁻¹
EC50 [4]: 110 pM
B2: Hu2.1-46 IgG (antibody, V domains shown)
VH: B1 VH with L98S, Y100F
VL: B1 VL
notes: humanized IgG; also called h2.1-46

IC50 [6]: 182 pM
IC50 [7]: 53 pM
Kd [8]: 320 pM
koff [8]: 0.00015 s⁻¹
kon [8]: 470000 M⁻¹ s⁻¹
Kd [9]: 90 pM
koff [9]: 1.6e-05 s⁻¹
kon [9]: 160000 M⁻¹ s⁻¹
B3: V3-46s-9 Fab (Fab, V domains shown)
VH: EVQLVESGGGLVQPGGSLRLSCAASGFTISSSSIHWVRQAPGKGLEWVAWVLPSVGFTDYADSVKGRFTISADTSKNTAYLQMNSLRAEDTAVYYCARRVCYNRLGVCAGGMDYWGQGTLVTVSS
VL: DIQMTQSPSSLSASVGDRVTITCRASEDISTAVAWYQQKPGKAPKLLIFAASYLYSGVPSRFSGSGSGTDFTLTISSLQPEDFATYYCQQSQISPPTFGQGTKVEIK
notes: soluble Fab in SPR; also called V46s-9

Kd [8]: 390 pM
koff [8]: 0.00029 s⁻¹
kon [8]: 740000 M⁻¹ s⁻¹
Kd [9]: 26 pM
koff [9]: 1.4e-05 s⁻¹
kon [9]: 617000 M⁻¹ s⁻¹
B4: V3-46s-42 Fab (Fab, V domains shown)
VH: B3 VH
VL: B3 VL with F49Y, Y53F
notes: soluble Fab in SPR; also called V46s-42

IC50 [1]: 600 pM
Kd [2]: 911 pM
koff [2]: 0.000926 s⁻¹
kon [2]: 1.02e+06 M⁻¹ s⁻¹
Kd [3]: 25 pM
koff [3]: 4.9e-05 s⁻¹
kon [3]: 1.94e+06 M⁻¹ s⁻¹
Kd [5]: 200 pM
koff [5]: 0.000262 s⁻¹
kon [5]: 1.3e+06 M⁻¹ s⁻¹
EC50 [4]: 430 pM
B5: Hu9.1-88 IgG (antibody, V domains shown)
VH: EVQLVESGGGLVQPGGSLRLSCAASGFPVTGSYVSWVRQAPGKGLEWVGFIRDKANGYTTEYNPSVKGRFTISRDTSKNTLYLQMNSLRAEDTAVYYCAQVRRALDYWGQGTLVTVSS
VL: DIQMTQSPSSLSASVGDRVTITCKSSQSLLYSSNQNNYLAWYQQKPGKAPKLLIYWASTRESGVPSRFSGSGSGTDFTLTISSLQPEDFATYYCQQYYTYPYTFGQGTKVEIKR
notes: humanized IgG; also called h9.1-88

IC50 [1]: 820 pM
EC50 [4]: 330 pM
B6: h9.1-70 IgG (antibody, V domains shown)
VH: B5 VH with G26D, F27S, V29R, T30S, S32Y, V34I, R74A, L81A
VL: B5 VL with T59I, E61D

IC50 [1]: 1780 pM
EC50 [4]: 790 pM
B7: h9.1-73 IgG (antibody, V domains shown)
VH: B5 VH with F27L, V29M, T30A, S32F, V34T, R74A, L81A
VL: B5 VL with S58Q, T59H, R60L, E61D
